# Experimental data taken from patent US20170008943A1 (Novo Nordisk, published 2017).
# *1 amine or outer side, *2 acyl side, *3 side chain or, on linkers, in order; H or OH if unused. Side-chain parts run from the residue outwards. [ ]: non-standard residue; d: D form. The star is where a group is joined. γGlu = O=C(O)[C@H](CCC(=O)[*:2])N[*:1]; Desaminohistidyl = O=C(CCc1c[nH]cn1)*
# Assays:
# human glucagon receptor [1] = target: T1, human glucagon receptor (human, UniProt P47871 26-477); experiment: cell-based or functional assay
# human glucagon receptor [2] = target: T1, human glucagon receptor; experiment: displacement of 125I-glucagon from BHK membranes with human glucagon receptor (SPA), Assay (II)(b)
# T1 sequence (P47871 26-477): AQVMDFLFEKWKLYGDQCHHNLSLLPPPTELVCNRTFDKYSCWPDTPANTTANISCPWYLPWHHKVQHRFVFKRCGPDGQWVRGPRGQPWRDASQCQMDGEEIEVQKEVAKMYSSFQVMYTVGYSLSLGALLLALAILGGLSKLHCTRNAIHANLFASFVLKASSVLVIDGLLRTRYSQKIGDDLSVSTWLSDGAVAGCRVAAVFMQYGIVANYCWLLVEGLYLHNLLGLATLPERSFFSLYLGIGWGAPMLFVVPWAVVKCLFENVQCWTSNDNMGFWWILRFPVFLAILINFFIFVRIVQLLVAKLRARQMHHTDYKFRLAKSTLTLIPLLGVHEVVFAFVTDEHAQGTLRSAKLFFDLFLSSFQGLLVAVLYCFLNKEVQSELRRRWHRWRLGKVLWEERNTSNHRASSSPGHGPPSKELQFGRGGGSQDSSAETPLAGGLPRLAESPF
binder,measurement,setting,value
"[Desaminohistidyl]SHGTFTSDYSKYLEK([γGlu-γGlu-γGlu-γGlu-Ac])RRAQEFVQWLLST-OH (SMILES CC(=O)N[C@@H](CCC(=O)N[C@@H](CCC(=O)N[C@@H](CCC(=O)N[C@@H](CCC(=O)NCCCC[C@H](NC(=O)[C@H](CCC(=O)O)NC(=O)[C@H](CC(C)C)NC(=O)[C@H](Cc1ccc(O)cc1)NC(=O)[C@H](CCCCN)NC(=O)[C@H](CO)NC(=O)[C@H](Cc1ccc(O)cc1)NC(=O)[C@H](CC(=O)O)NC(=O)[C@H](CO)NC(=O)[C@@H](NC(=O)[C@H](Cc1ccccc1)NC(=O)[C@@H](NC(=O)CNC(=O)[C@H](Cc1c[nH]cn1)NC(=O)[C@H](CO)NC(=O)CCc1c[nH]cn1)[C@@H](C)O)[C@@H](C)O)C(=O)N[C@@H](CCCNC(=N)N)C(=O)N[C@@H](CCCNC(=N)N)C(=O)N[C@@H](C)C(=O)N[C@@H](CCC(N)=O)C(=O)N[C@@H](CCC(=O)O)C(=O)N[C@@H](Cc1ccccc1)C(=O)N[C@H](C(=O)N[C@@H](CCC(N)=O)C(=O)N[C@@H](Cc1c[nH]c2ccccc12)C(=O)N[C@@H](CC(C)C)C(=O)N[C@@H](CC(C)C)C(=O)N[C@@H](CO)C(=O)N[C@H](C(=O)O)[C@@H](C)O)C(C)C)C(=O)O)C(=O)O)C(=O)O)C(=O)O, Imp written X under substitutions)","EC50 hGlucagonR (pM), CRE luciferase reporter in BHK cells",human glucagon receptor [1],105 pM
same,IC50,human glucagon receptor [2],24.4 nM
"[Desaminohistidyl]SHGTFTSDYSKYLDLRRAQDFVK([γGlu-γGlu-γGlu-γGlu-Ac])WLLST-OH (SMILES CC(=O)N[C@@H](CCC(=O)N[C@@H](CCC(=O)N[C@@H](CCC(=O)N[C@@H](CCC(=O)NCCCC[C@H](NC(=O)[C@@H](NC(=O)[C@H](Cc1ccccc1)NC(=O)[C@H](CC(=O)O)NC(=O)[C@H](CCC(N)=O)NC(=O)[C@H](C)NC(=O)[C@H](CCCNC(=N)N)NC(=O)[C@H](CCCNC(=N)N)NC(=O)[C@H](CC(C)C)NC(=O)[C@H](CC(=O)O)NC(=O)[C@H](CC(C)C)NC(=O)[C@H](Cc1ccc(O)cc1)NC(=O)[C@H](CCCCN)NC(=O)[C@H](CO)NC(=O)[C@H](Cc1ccc(O)cc1)NC(=O)[C@H](CC(=O)O)NC(=O)[C@H](CO)NC(=O)[C@@H](NC(=O)[C@H](Cc1ccccc1)NC(=O)[C@@H](NC(=O)CNC(=O)[C@H](Cc1c[nH]cn1)NC(=O)[C@H](CO)NC(=O)CCc1c[nH]cn1)[C@@H](C)O)[C@@H](C)O)C(C)C)C(=O)N[C@@H](Cc1c[nH]c2ccccc12)C(=O)N[C@@H](CC(C)C)C(=O)N[C@@H](CC(C)C)C(=O)N[C@@H](CO)C(=O)N[C@H](C(=O)O)[C@@H](C)O)C(=O)O)C(=O)O)C(=O)O)C(=O)O, Imp written X under substitutions)","EC50 hGlucagonR (pM), CRE luciferase reporter in BHK cells",human glucagon receptor [1],3 pM
same,IC50,human glucagon receptor [2],0.5 nM
"[Desaminohistidyl]SHGTFTSDYSKYLDARRAQDFVK([γGlu-γGlu-γGlu-γGlu-Ac])WLLST-OH (SMILES CC(=O)N[C@@H](CCC(=O)N[C@@H](CCC(=O)N[C@@H](CCC(=O)N[C@@H](CCC(=O)NCCCC[C@H](NC(=O)[C@@H](NC(=O)[C@H](Cc1ccccc1)NC(=O)[C@H](CC(=O)O)NC(=O)[C@H](CCC(N)=O)NC(=O)[C@H](C)NC(=O)[C@H](CCCNC(=N)N)NC(=O)[C@H](CCCNC(=N)N)NC(=O)[C@H](C)NC(=O)[C@H](CC(=O)O)NC(=O)[C@H](CC(C)C)NC(=O)[C@H](Cc1ccc(O)cc1)NC(=O)[C@H](CCCCN)NC(=O)[C@H](CO)NC(=O)[C@H](Cc1ccc(O)cc1)NC(=O)[C@H](CC(=O)O)NC(=O)[C@H](CO)NC(=O)[C@@H](NC(=O)[C@H](Cc1ccccc1)NC(=O)[C@@H](NC(=O)CNC(=O)[C@H](Cc1c[nH]cn1)NC(=O)[C@H](CO)NC(=O)CCc1c[nH]cn1)[C@@H](C)O)[C@@H](C)O)C(C)C)C(=O)N[C@@H](Cc1c[nH]c2ccccc12)C(=O)N[C@@H](CC(C)C)C(=O)N[C@@H](CC(C)C)C(=O)N[C@@H](CO)C(=O)N[C@H](C(=O)O)[C@@H](C)O)C(=O)O)C(=O)O)C(=O)O)C(=O)O, Imp written X under substitutions)","EC50 hGlucagonR (pM), CRE luciferase reporter in BHK cells",human glucagon receptor [1],4 pM
same,IC50,human glucagon receptor [2],0.9 nM
"[Desaminohistidyl]SHGTFTSDYSKYLESRRAQEFVK([γGlu-γGlu-γGlu-γGlu-Ac])WLLET-OH (SMILES CC(=O)N[C@@H](CCC(=O)N[C@@H](CCC(=O)N[C@@H](CCC(=O)N[C@@H](CCC(=O)NCCCC[C@H](NC(=O)[C@@H](NC(=O)[C@H](Cc1ccccc1)NC(=O)[C@H](CCC(=O)O)NC(=O)[C@H](CCC(N)=O)NC(=O)[C@H](C)NC(=O)[C@H](CCCNC(=N)N)NC(=O)[C@H](CCCNC(=N)N)NC(=O)[C@H](CO)NC(=O)[C@H](CCC(=O)O)NC(=O)[C@H](CC(C)C)NC(=O)[C@H](Cc1ccc(O)cc1)NC(=O)[C@H](CCCCN)NC(=O)[C@H](CO)NC(=O)[C@H](Cc1ccc(O)cc1)NC(=O)[C@H](CC(=O)O)NC(=O)[C@H](CO)NC(=O)[C@@H](NC(=O)[C@H](Cc1ccccc1)NC(=O)[C@@H](NC(=O)CNC(=O)[C@H](Cc1c[nH]cn1)NC(=O)[C@H](CO)NC(=O)CCc1c[nH]cn1)[C@@H](C)O)[C@@H](C)O)C(C)C)C(=O)N[C@@H](Cc1c[nH]c2ccccc12)C(=O)N[C@@H](CC(C)C)C(=O)N[C@@H](CC(C)C)C(=O)N[C@@H](CCC(=O)O)C(=O)N[C@H](C(=O)O)[C@@H](C)O)C(=O)O)C(=O)O)C(=O)O)C(=O)O, Imp written X under substitutions)","EC50 hGlucagonR (pM), CRE luciferase reporter in BHK cells",human glucagon receptor [1],17 pM
same,IC50,human glucagon receptor [2],8.7 nM
"[Desaminohistidyl]SHGTFTSDYSKYLESRRAQDFVK([γGlu-γGlu-γGlu-γGlu-Ac])WLLST-OH (SMILES CC(=O)N[C@@H](CCC(=O)N[C@@H](CCC(=O)N[C@@H](CCC(=O)N[C@@H](CCC(=O)NCCCC[C@H](NC(=O)[C@@H](NC(=O)[C@H](Cc1ccccc1)NC(=O)[C@H](CC(=O)O)NC(=O)[C@H](CCC(N)=O)NC(=O)[C@H](C)NC(=O)[C@H](CCCNC(=N)N)NC(=O)[C@H](CCCNC(=N)N)NC(=O)[C@H](CO)NC(=O)[C@H](CCC(=O)O)NC(=O)[C@H](CC(C)C)NC(=O)[C@H](Cc1ccc(O)cc1)NC(=O)[C@H](CCCCN)NC(=O)[C@H](CO)NC(=O)[C@H](Cc1ccc(O)cc1)NC(=O)[C@H](CC(=O)O)NC(=O)[C@H](CO)NC(=O)[C@@H](NC(=O)[C@H](Cc1ccccc1)NC(=O)[C@@H](NC(=O)CNC(=O)[C@H](Cc1c[nH]cn1)NC(=O)[C@H](CO)NC(=O)CCc1c[nH]cn1)[C@@H](C)O)[C@@H](C)O)C(C)C)C(=O)N[C@@H](Cc1c[nH]c2ccccc12)C(=O)N[C@@H](CC(C)C)C(=O)N[C@@H](CC(C)C)C(=O)N[C@@H](CO)C(=O)N[C@H](C(=O)O)[C@@H](C)O)C(=O)O)C(=O)O)C(=O)O)C(=O)O, Imp written X under substitutions)","EC50 hGlucagonR (pM), CRE luciferase reporter in BHK cells",human glucagon receptor [1],12 pM
same,IC50,human glucagon receptor [2],6.2 nM
"[Desaminohistidyl]SHGTFTSDYSKYLESRRAK([γGlu-γGlu-γGlu-γGlu-Ac])EFVQWLLST-OH (SMILES CC(=O)N[C@@H](CCC(=O)N[C@@H](CCC(=O)N[C@@H](CCC(=O)N[C@@H](CCC(=O)NCCCC[C@H](NC(=O)[C@H](C)NC(=O)[C@H](CCCNC(=N)N)NC(=O)[C@H](CCCNC(=N)N)NC(=O)[C@H](CO)NC(=O)[C@H](CCC(=O)O)NC(=O)[C@H](CC(C)C)NC(=O)[C@H](Cc1ccc(O)cc1)NC(=O)[C@H](CCCCN)NC(=O)[C@H](CO)NC(=O)[C@H](Cc1ccc(O)cc1)NC(=O)[C@H](CC(=O)O)NC(=O)[C@H](CO)NC(=O)[C@@H](NC(=O)[C@H](Cc1ccccc1)NC(=O)[C@@H](NC(=O)CNC(=O)[C@H](Cc1c[nH]cn1)NC(=O)[C@H](CO)NC(=O)CCc1c[nH]cn1)[C@@H](C)O)[C@@H](C)O)C(=O)N[C@@H](CCC(=O)O)C(=O)N[C@@H](Cc1ccccc1)C(=O)N[C@H](C(=O)N[C@@H](CCC(N)=O)C(=O)N[C@@H](Cc1c[nH]c2ccccc12)C(=O)N[C@@H](CC(C)C)C(=O)N[C@@H](CC(C)C)C(=O)N[C@@H](CO)C(=O)N[C@H](C(=O)O)[C@@H](C)O)C(C)C)C(=O)O)C(=O)O)C(=O)O)C(=O)O, Imp written X under substitutions)","EC50 hGlucagonR (pM), CRE luciferase reporter in BHK cells",human glucagon receptor [1],41 pM
same,IC50,human glucagon receptor [2],7.6 nM
"[Desaminohistidyl]SHGTFTSDYSKYLDLRRAQEFVK([γGlu-γGlu-γGlu-γGlu-Ac])WLLST-OH (SMILES CC(=O)N[C@@H](CCC(=O)N[C@@H](CCC(=O)N[C@@H](CCC(=O)N[C@@H](CCC(=O)NCCCC[C@H](NC(=O)[C@@H](NC(=O)[C@H](Cc1ccccc1)NC(=O)[C@H](CCC(=O)O)NC(=O)[C@H](CCC(N)=O)NC(=O)[C@H](C)NC(=O)[C@H](CCCNC(=N)N)NC(=O)[C@H](CCCNC(=N)N)NC(=O)[C@H](CC(C)C)NC(=O)[C@H](CC(=O)O)NC(=O)[C@H](CC(C)C)NC(=O)[C@H](Cc1ccc(O)cc1)NC(=O)[C@H](CCCCN)NC(=O)[C@H](CO)NC(=O)[C@H](Cc1ccc(O)cc1)NC(=O)[C@H](CC(=O)O)NC(=O)[C@H](CO)NC(=O)[C@@H](NC(=O)[C@H](Cc1ccccc1)NC(=O)[C@@H](NC(=O)CNC(=O)[C@H](Cc1c[nH]cn1)NC(=O)[C@H](CO)NC(=O)CCc1c[nH]cn1)[C@@H](C)O)[C@@H](C)O)C(C)C)C(=O)N[C@@H](Cc1c[nH]c2ccccc12)C(=O)N[C@@H](CC(C)C)C(=O)N[C@@H](CC(C)C)C(=O)N[C@@H](CO)C(=O)N[C@H](C(=O)O)[C@@H](C)O)C(=O)O)C(=O)O)C(=O)O)C(=O)O, Imp written X under substitutions)","EC50 hGlucagonR (pM), CRE luciferase reporter in BHK cells",human glucagon receptor [1],1 pM
same,IC50,human glucagon receptor [2],0.2 nM
